For this series the following is noted: Hordeum vulgare; pH 6.3; 25 °C; GdnHCl; Fluorescence; MES 450 mM; reversible: yes; whole UniProt chain shown.

Consider 1 protein from FireProtDB (doi:10.1021/bi00250a042).

B1: Subtilisin-chymotrypsin inhibitor-2A wild type, P01053 (protein)
chain: MSSVEKKPEGVNTGAGDRHNLKTEWPELVGKSVEEAKKVILQDKPEAQIIVLPVGTIVTMEYRIDRVRLFVDKLDNIAQVPRVG
Take B1: the denaturant m value is 1.89 kcal/mol/M, the “denaturant midpoint (higher = more stable)” value was determined as 3.99 M and the unfolding free energy was found to be 7.53 kcal/mol.
